# Test results: paper PMC8686473
# How the values were obtained:
# Etanercept [1] = target: Etanercept (UniProt P20333); experiment: SEC-MALS; untreated formulation diluted 25 times in water to 2 mg/ml; BioResolve SEC mAb column, 50 mM phosphate buffer pH 7, 200 mM KCl, 30°C, 0.5 ml/min
# Etanercept [2] = target: Etanercept (UniProt P20333); experiment: SEC-MALS; formulation after forced degradation (stirring at 600 rpm, 60°C, 2 h); BioResolve SEC mAb column, 50 mM phosphate buffer pH 7, 200 mM KCl, 30°C, 0.5 ml/min
substance,measurement,setting,value
Etanercept (from UniProt P20333 23-257) (Fc fusion),stoichiometry N,Etanercept [1],3
same,stoichiometry N,Etanercept [2],23
